In paper PMC9408373 (2022):

How the values were obtained:
[1] = biological target: T1, human CDC42 (aa 1-178), wild type (human, UniProt P60953 1-178); assay: FP; mGDP-bound CDC42
[2] = biological target: T1, human CDC42 (aa 1-178), wild type; assay: FP; mGppNHp-bound CDC42

T1 sequence (P60953 1-178): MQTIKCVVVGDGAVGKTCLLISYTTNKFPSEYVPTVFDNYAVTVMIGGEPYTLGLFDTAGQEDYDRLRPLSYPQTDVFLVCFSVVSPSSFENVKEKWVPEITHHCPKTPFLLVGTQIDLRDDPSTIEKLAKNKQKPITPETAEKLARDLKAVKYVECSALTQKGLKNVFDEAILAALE

B1: human IQGAP2 GRD2 (aa 875-1246) (domain or fragment)
chain: SKERRKTLETYQQLFYLLQTNPLYLAKLIFQMPQNKSTKFMDTVIFTLYNYASNQREEYLLLKLFKTALEEEIKSKVDQVQDIVTGNPTVIKMVVSFNRGARGQNTLRQLLAPVVKEIIDDKSLIINTNPVEVYKAWVNQLETQTGEASKLPYDVTTEQALTYPEVKNKLEASIENLRRVTDKVLNSIISSLDLLPYGLRYIAKVLKNSIHEKFPDATEDELLKIVGNLLYYRYMNPAIVAPDGFDIIDMTAGGQINSDQRRNLGSVAKVLQHAASNKLFEGENEHLSSMNNYLSETYQEFRKYFKEACNVPEPEEKFNMDKYTDLVTVSKPVIYISIEEIISTHSLLLEHQDAIAPEKNDLLSELLGSLGE
Work on B1 yielded a Kd [1] of 55 µM.

B2: human IQGAP1 GRD1 (aa 962-1345) (domain or fragment)
chain: SKEKREKLEAYQHLFYLLQTNPTYLAKLIFQMPQNKSTKFMDSVIFTLYNYASNQREEYLLLRLFKTALQEEIKSKVDQIQEIVTGNPTVIKMVVSFNRGARGQNALRQILAPVVKEIMDDKSLNIKTDPVDIYKSWVNQMESQTGEASKLPYDVTPEQALAHEEVKTRLDSSIRNMRAVTDKFLSAIVSSVDKIPYGMRFIAKVLKDSLHEKFPDAGEDELLKIIGNLLYYRYMNPAIVAPDAFDIIDLSAGGQLTTDQRRNLGSIAKMLQHAASNKMFLGDNAHLSIINEYLSQSYQKFRRFFQTACDVPELQDKFNVDEYSDLVTLTKPVIYISIGEIINTHTLLLDHQDAIAPEHNDPIHELLDDLGEVPTIESLIGESS
For B2, the Kd [1] was 150 µM and the Kd [2] was 152 µM.

B3: human IQGAP2 C795 (aa 780-1575) (domain or fragment)
chain: PLTVIRKFVYLLDQSDLDFQEELEVARLREEVVTKIRANQQLEKDLNLMDIKIGLLVKNRITLEDVISHSKKLNKKKGGEMEILNNTDNQGIKSLSKERRKTLETYQQLFYLLQTNPLYLAKLIFQMPQNKSTKFMDTVIFTLYNYASNQREEYLLLKLFKTALEEEIKSKVDQVQDIVTGNPTVIKMVVSFNRGARGQNTLRQLLAPVVKEIIDDKSLIINTNPVEVYKAWVNQLETQTGEASKLPYDVTTEQALTYPEVKNKLEASIENLRRVTDKVLNSIISSLDLLPYGLRYIAKVLKNSIHEKFPDATEDELLKIVGNLLYYRYMNPAIVAPDGFDIIDMTAGGQINSDQRRNLGSVAKVLQHAASNKLFEGENEHLSSMNNYLSETYQEFRKYFKEACNVPEPEEKFNMDKYTDLVTVSKPVIYISIEEIISTHSLLLEHQDAIAPEKNDLLSELLGSLGEVPTVESFLGEGAVDPNDPNKANTLSQLSKTEISLVLTSKYDIEDGEAIDSRSLMIKTKKLIIDVIRNQPGNTLTEILETPATAQQEVDHATDMVSRAMIDSRTPEEMKHSQSMIEDAQLPLEQKKRKIQRNLRTLEQTGHVSSENKYQDILNEIAKDIRNQRIYRKLRKAELAKLQQTLNALNKKAAFYEEQINYYDTYIKTCLDNLKRKNTRRSIKLDGKGEPKGAKRAKPVKYTAAKLHEKGVLLDIDDLQTNQFKNVTFDIIATEDVGIFDVRSKFLGVEMEKVQLNIQDLLQMQYEGVAVMKMFDKVKVNVNLLIYLLNKKFYGK
Binder B3 has a Kd [1] of 113 µM.

B4: human IQGAP1 C794 (aa 863-1657) (domain or fragment)
chain: DPPMVVVRKFVHLLDQSDQDFQEELDLMKMREEVITLIRSNQQLENDLNLMDIKIGLLVKNKITLQDVVSHSKKLTKKNKEQLSDMMMINKQKGGLKALSKEKREKLEAYQHLFYLLQTNPTYLAKLIFQMPQNKSTKFMDSVIFTLYNYASNQREEYLLLRLFKTALQEEIKSKVDQIQEIVTGNPTVIKMVVSFNRGARGQNALRQILAPVVKEIMDDKSLNIKTDPVDIYKSWVNQMESQTGEASKLPYDVTPEQALAHEEVKTRLDSSIRNMRAVTDKFLSAIVSSVDKIPYGMRFIAKVLKDSLHEKFPDAGEDELLKIIGNLLYYRYMNPAIVAPDAFDIIDLSAGGQLTTDQRRNLGSIAKMLQHAASNKMFLGDNAHLSIINEYLSQSYQKFRRFFQTACDVPELQDKFNVDEYSDLVTLTKPVIYISIGEIINTHTLLLDHQDAIAPEHNDPIHELLDDLGEVPTIESLIGESSGNLNDPNKEALAKTEVSLTLTNKFDVPGDENAEMDARTILLNTKRLIVDVIRFQPGETLTEILETPATSEQEAEHQRAMQRRAIRDAKTPDKMKKSKSVKEDSNLTLQEKKEKIQTGLKKLTELGTVDPKNKYQELINDIARDIRNQRRYRQRRKAELVKLQQTYAALNSKATFYGEQVDYYKSYIKTCLDNLASKGKVSKKPREMKGKKSKKISLKYTAARLHEKGVLLEIEDLQVNQFKNVIFEISPTEEVGDFEVKAKFMGVQMETFMLHYQDLLQLQYEGVAVMKLFDRAKVNVNLLIFLLNKKFYGK
B4 was tested, and the Kd [1] was 64 µM.
